In series [1] the target is T1, AtPOT1a OB1 (Arabidopsis thaliana, UniProt Q56Y52 1-158).
T1 sequence: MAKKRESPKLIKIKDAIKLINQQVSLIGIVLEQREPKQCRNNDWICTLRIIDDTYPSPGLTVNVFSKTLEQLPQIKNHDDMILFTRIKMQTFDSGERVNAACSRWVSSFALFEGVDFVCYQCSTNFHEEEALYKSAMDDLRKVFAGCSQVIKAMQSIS
In words: EMSA.

The next series concerns the target T2, AtPOT1b OB1 V63F (Arabidopsis thaliana, UniProt Q6NKX5 1-159, V63F).
T2 sequence: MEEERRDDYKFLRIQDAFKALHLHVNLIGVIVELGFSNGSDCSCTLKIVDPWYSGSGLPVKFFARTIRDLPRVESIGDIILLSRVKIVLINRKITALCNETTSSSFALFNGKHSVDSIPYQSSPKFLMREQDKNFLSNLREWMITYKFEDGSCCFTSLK
Description: EMSA.

In a further series the target is T3, AtPOT1a OB1 F65A (Arabidopsis thaliana, UniProt Q56Y52 1-158, F65A).
T3 sequence: T1 sequence with F65A
Description: EMSA.

For another series, the target named is T4, AtPOT1b OB1 (Arabidopsis thaliana, UniProt Q6NKX5 1-159).
T4 sequence: T2 sequence with F63V
In words: EMSA.

Series [2] deals with T1, AtPOT1a OB1. In words: EMSA. This is another data set of the same source.
Series [3] deals with T1, AtPOT1a OB1. Description: competition.
Series [4] concerns the target T1, AtPOT1a OB1. Description: EMSA. The source holds these as a separate data set.
The target of series [5] is T1, AtPOT1a OB1. Description: EMSA. This is another data set of the same source.

Residue numbers refer to the chain shown, from its start. Where two headings read alike, the source gives them in different places.

TTTAGGGTTTAGGGTTTAGGGTTTAGGGTTTAGGG (ssDNA) [(TTTAGGG)5] yielded a Kd with AtPOT1a OB1 [1] of 230 ± 30 nM. Further, the figures for the binding result in the series with AtPOT1b OB1 V63F, with AtPOT1a OB1 F65A and in the series with AtPOT1b OB1 were “binds”, “no binding” and “no binding”, respectively. On to TTTAGGG (ssDNA), for which the binding result with AtPOT1a OB1 [2] was “no binding”.

In the case of TTAATTAACCCGGGGATCCGGCTTGATCAACGAATGATCC (ssDNA) [NS DNA], the binding signal in the series with AtPOT1a OB1 [3] is 10 % reduction of binding. Turning to TTAGGGTTTAGG (ssDNA) [12-mer telomere], in the series with AtPOT1a OB1 [4], the binding result is reported as “binds”. For TAGGGTTTAGG (ssDNA) [minimal binding site 11-mer], the binding result with AtPOT1a OB1 [5] was “binds”. Regarding UUUAGGGUUUAGGGUUUAGGGUUUAGGGUUUAGGG (ssRNA) [(UUUAGGG)5], the binding signal with AtPOT1a OB1 [3] is 10 % reduction of binding.

For TTTAGGGTTTAGGG (ssDNA) [(TTTAGGG)2], in the series with AtPOT1a OB1 [1], the Kd was roughly 1000 nM.

For the origin of these results see PMC5175356.
